In publication PMC9753469, “Structure and functional mapping of the KRAB‐KAP1 repressor complex” (The EMBO Journal, 2022):
Each block holds one binder with its values, some of them ahead of it.

Molecular target: T1, KAP1 RBCC (wild type), SPR analyte (human (by the printed UniProt entry), UniProt Q13263 50-413)
T1 construct: KAP1 (TRIM28) RBCC motif; probably as in Stoll et al, 2019; also called WT KAP1 RBCC; wild-type KAP1; source: E. coli BL21(DE3)
Assay: SPR; Biacore T200, CM5 chip; MBP-KRAB immobilised (about 300 RU ZNF93 WT, 600 RU E35R); KAP1 RBCC flowed, 1:2 dilution series from 40 μM; 20 mM HEPES pH 8.0, 0.5 M NaCl, 0.5 mM TCEP, 20°C; biphasic kinetic model
Settings: both partners purified

T1 sequence (Q13263 50-413): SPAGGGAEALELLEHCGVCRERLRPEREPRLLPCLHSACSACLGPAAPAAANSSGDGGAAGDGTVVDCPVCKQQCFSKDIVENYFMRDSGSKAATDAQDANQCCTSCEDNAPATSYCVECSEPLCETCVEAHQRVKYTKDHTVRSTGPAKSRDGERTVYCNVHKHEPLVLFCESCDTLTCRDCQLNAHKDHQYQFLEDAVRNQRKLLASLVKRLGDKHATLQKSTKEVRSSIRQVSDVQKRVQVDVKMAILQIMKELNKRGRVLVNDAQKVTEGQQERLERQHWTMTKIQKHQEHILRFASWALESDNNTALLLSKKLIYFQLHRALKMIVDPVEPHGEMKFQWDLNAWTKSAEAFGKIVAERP

Kd: 198 nM
B1: MBP-KRAB (ZNF93 KRAB E35R) (domain or fragment)
chain: not shown
notes: ZNF93, human, residues 2-71 (KRAB domain), E35R; also called ZNF93 E35R; source: E. coli BL21(DE3); not shown: MBP, N-terminal, kept

Kd: 7.5 nM
B2: MBP-KRAB (ZNF93 KRAB, wild type) (domain or fragment)
chain: not shown
notes: ZNF93, human, residues 2-71 (KRAB domain); The purification of MBP-KRAB alone is not described; also called ZNF93 WT; source: E. coli BL21(DE3); not shown: MBP, N-terminal, kept
